Results from US7456007B1, “β-secretase enzyme compositions and methods” (Elan Pharmaceuticals, Inc., priority 1998, dated 2008).
[ ]: non-standard residue; d: D form. Sta = CC(C)C[C@H](N)[C@@H](O)CC(=O)O

Target: β-secretase (Homo sapiens, UniProt P56817)
Experiment: β-secretase inhibition, assay not specified
Assay type: biochemical

β-secretase, sequence (P56817 46-501): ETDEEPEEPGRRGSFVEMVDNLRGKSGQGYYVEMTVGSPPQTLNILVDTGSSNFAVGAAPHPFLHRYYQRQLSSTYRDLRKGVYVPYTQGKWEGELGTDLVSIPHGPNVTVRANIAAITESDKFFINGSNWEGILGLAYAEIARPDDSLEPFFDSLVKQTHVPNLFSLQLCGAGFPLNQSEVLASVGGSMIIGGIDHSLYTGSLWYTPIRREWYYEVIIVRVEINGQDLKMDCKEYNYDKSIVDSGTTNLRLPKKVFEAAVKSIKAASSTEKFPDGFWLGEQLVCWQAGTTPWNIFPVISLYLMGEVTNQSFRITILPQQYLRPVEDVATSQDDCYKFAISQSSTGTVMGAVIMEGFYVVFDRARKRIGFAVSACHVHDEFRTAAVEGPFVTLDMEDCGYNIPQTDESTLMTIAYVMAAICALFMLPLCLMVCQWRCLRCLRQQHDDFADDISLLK

For “NH2-KTEEISEVN[sta]VAEF-COOH (H-KTEEISEVN[Sta]VAEF-OH) [P10-P4′staD→V]”, the “inhibitor of the enzyme (in words)” value was “reasonably potent inhibitor”.
